Laboratory results taken from patent publication US20210061911A1.

Legend:
[1] = biological target: Human CD3ε/δ (human) (UniProt P07766); assay: kinetic binding analysis, method not given
[2] = biological target: Cynomolgus CD3ε/δ (cynomolgus monkey) (UniProt Q95LI5); assay: kinetic binding analysis, method not given
Cynomolgus CD3ε/δ (cynomolgus monkey), sequence (Q95LI5 22-117, stated change not applied, chain 1 of 2): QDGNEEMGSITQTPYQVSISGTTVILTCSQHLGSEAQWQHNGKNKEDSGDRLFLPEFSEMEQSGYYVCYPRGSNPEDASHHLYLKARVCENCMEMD
Cynomolgus CD3ε/δ (cynomolgus monkey), sequence (Q95LI8 22-105, stated change not applied, chain 2 of 2, further chain): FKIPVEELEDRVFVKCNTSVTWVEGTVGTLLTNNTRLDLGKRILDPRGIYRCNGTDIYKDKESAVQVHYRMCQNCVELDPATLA

Human CD3ε/δ (human), sequence (P07766 23-126, stated change not applied, chain 1 of 2): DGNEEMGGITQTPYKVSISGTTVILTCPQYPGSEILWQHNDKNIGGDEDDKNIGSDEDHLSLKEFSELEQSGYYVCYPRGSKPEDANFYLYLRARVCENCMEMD
Human CD3ε/δ (human), sequence (P04234 22-105, stated change not applied, chain 2 of 2, further chain): as the sequence (Q95LI8 22-105, stated change not applied, chain 2 of 2, further chain) above, with V5I, K15N, V20I, T32S, N33D, N34I, A64T, N74S, L83V counted along it

- Kd [1]: 9 nM
- koff [1]: 0.005 s⁻¹
- kon [1]: 570000 M⁻¹ s⁻¹
- Kd [2]: 9.2 nM
- koff [2]: 0.005 s⁻¹
- kon [2]: 550000 M⁻¹ s⁻¹
B1: DART-A, sequence-optimized CD123×CD3 bi-specific monovalent diabody (bispecific antibody)
chain 1: QAVVTQEPSLTVSPGGTVTLTCRSSTGAVTTSNYANWVQQKPGQAPRGLIGGTNKRAPWTPARFSGSLLGGKAALTITGAQAEDEADYYCALWYSNLWVFGGGTKLTVLGGGGSGGGGEVQLVQSGAELKKPGASVKVSCKASGYTFTDYYMKWVRQAPGQGLEWIGDIIPSNGATFYNQKFKGRVTITVDKSTSTAYMELSSLRSEDTAVYYCARSHLLRASWFAYWGQGTLVTVSSGGCGGGEVAALEKEVAALEKEVAALEKEVAALEK
chain 2: DFVMTQSPDSLAVSLGERVTMSCKSSQSLLNSGNQKNYLTWYQQKPGQPPKLLIYWASTRESGVPDRFSGSGSGTDFTLTISSLQAEDVAVYYCQNDYSYPYTFGQGTKLEIKGGGSGGGGEVQLVESGGGLVQPGGSLRLSCAASGFTFSTYAMNWVRQAPGKGLEWVGRIRSKYNNYATYYADSVKDRFTISRDDSKNSLYLQMNSLKTEDTAVYYCVRHGNFGNSYVSWFAYWGQGTLVTVSSGGCGGGKVAALKEKVAALKEKVAALKEKVAALKE
